# According to patent US9809653B2, “Anti-LAMP1 antibodies and antibody drug conjugates, and uses thereof” (SANOFI, priority 2012, dated 2017):
# T1: Hybrid LAMP1 / glycan-deleted LAMP1 transmembrane proteins (Mus musculus, UniProt P11438, K100R/L93T/T102A/Y92H)
# T1 construct: expressed in transfected cells; host or cells: 293-F (HEK293-derived), transient transfection
# T1 sequence (P11438 with tags, fused parts or gaps Y92H/L93T/K100R/T102A): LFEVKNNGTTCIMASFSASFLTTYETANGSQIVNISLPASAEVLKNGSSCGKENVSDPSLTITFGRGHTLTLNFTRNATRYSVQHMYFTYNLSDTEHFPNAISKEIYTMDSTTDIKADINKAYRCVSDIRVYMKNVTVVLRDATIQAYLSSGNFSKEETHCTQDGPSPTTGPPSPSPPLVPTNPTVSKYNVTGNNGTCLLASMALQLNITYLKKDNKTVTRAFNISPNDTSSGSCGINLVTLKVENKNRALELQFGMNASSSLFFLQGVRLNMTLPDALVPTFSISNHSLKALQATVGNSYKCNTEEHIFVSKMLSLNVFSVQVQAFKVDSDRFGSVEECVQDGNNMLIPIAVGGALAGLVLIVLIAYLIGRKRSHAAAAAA
# T2: Hybrid LAMP1 / glycan-deleted LAMP1 transmembrane proteins (Homo sapiens, UniProt P11279, A93T/T85V/V91T)
# T2 construct: expressed in transfected cells; host or cells: 293-F (HEK293-derived), transient transfection
# T2 sequence (P11279 with tags, fused parts or gaps T85V/V91T/A93T): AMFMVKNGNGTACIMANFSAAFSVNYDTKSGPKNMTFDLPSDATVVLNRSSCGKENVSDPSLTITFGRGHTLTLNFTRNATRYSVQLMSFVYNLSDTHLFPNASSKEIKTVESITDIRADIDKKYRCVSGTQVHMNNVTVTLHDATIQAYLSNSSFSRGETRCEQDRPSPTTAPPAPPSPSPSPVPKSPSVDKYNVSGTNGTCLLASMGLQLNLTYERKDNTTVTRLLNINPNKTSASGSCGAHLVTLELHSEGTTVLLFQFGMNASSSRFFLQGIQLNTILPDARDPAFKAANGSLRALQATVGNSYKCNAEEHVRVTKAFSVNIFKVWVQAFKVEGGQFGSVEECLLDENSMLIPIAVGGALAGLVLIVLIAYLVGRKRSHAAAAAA
# T3: Hybrid LAMP1 / glycan-deleted LAMP1 transmembrane proteins (Homo sapiens, UniProt P11279, D66S/F65I/K57A/K61Q/M63V/N62I/P60S/S58N/T64N)
# T3 construct: expressed in transfected cells; host or cells: 293-F (HEK293-derived), transient transfection
# T3 sequence (P11279 with tags, fused parts or gaps K57A/S58N/P60S/K61Q/N62I/M63V/T64N/F65I/D66S): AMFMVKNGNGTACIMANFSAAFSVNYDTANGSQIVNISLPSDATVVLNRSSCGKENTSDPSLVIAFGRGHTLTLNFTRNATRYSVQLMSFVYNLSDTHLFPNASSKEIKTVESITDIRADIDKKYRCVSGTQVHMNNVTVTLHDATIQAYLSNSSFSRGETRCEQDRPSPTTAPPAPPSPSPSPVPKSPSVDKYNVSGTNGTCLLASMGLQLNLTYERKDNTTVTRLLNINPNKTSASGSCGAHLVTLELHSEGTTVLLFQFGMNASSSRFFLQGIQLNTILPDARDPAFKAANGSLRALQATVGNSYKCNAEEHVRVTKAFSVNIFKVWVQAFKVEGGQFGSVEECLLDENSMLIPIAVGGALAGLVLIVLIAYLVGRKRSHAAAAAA
# T4: Hybrid LAMP1 / glycan-deleted LAMP1 transmembrane proteins (Homo sapiens, UniProt P11279, A49S/D55E/N45S/N53T/S51L/V52T)
# T4 construct: expressed in transfected cells; host or cells: 293-F (HEK293-derived), transient transfection
# T4 sequence (P11279 with tags, fused parts or gaps N45S/A49S/S51L/V52T/N53T/D55E): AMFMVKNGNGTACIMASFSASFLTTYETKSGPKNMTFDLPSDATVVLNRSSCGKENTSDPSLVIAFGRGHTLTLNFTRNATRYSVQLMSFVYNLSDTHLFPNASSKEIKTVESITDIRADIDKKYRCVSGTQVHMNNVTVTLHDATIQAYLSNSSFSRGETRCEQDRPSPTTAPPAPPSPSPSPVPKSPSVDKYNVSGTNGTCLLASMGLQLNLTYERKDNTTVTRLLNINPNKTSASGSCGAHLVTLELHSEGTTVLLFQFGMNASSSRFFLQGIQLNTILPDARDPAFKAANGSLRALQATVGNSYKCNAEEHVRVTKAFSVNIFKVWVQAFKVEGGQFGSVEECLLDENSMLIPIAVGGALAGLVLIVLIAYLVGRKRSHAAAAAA
# T5: Hybrid LAMP1 / glycan-deleted LAMP1 transmembrane proteins (Mus musculus, UniProt P11438, E181G/G176S/K100R/K180R/L93T/N177S/S175N/T102A/Y92H)
# T5 construct: expressed in transfected cells; host or cells: 293-F (HEK293-derived), transient transfection
# T5 sequence (P11438 with tags, fused parts or gaps Y92H/L93T/K100R/T102A/S175N/G176S/N177S/K180R/E181G): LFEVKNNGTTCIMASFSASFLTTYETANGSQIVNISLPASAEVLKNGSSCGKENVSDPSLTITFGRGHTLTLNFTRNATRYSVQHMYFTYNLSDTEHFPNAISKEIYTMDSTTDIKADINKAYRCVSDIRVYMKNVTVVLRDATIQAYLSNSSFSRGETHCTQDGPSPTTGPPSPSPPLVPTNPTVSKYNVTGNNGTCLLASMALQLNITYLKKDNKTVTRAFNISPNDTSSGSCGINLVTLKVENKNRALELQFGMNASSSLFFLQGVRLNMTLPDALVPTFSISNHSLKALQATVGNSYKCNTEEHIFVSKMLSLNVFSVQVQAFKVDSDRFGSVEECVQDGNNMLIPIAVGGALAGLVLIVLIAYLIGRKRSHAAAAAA
# Tests used:
# Assay in all cases: Binding onto membrane-anchored hybrid or mutated LAMP1 proteins (293-F cells) by flow cytometry
# Design in all cases: species or system human/mouse
# [1] = biological target: T1, Hybrid LAMP1 / glycan-deleted LAMP1 transmembrane proteins; conditions: pXL6047 mLAMP1_hseq6_ΔGYQTI
# Procedure: (§1) Different LAMP1 proteins were expressed at the cell membrane of HEK293 cells after transient expression from mammalian plasmids encoding the entire coding sequence of LAMP1 deleted of the intracellular lysosome-targeting motif GYQTI and substituted by a 5-Ala repeat sequence.
# (§2) Two days post transfection cells were processed, analyzed by flow cytometry (Guava® easyCyte™ 8HT) as mentioned in example 4.7, and the mean fluorescence was recorded. This fluorescence represents a semi-quantitative assessment of binding.
# [2] = biological target: T2, Hybrid LAMP1 / glycan-deleted LAMP1 transmembrane proteins; conditions: pXL6017 LAMP1_mseq5_ΔGYQTI; Table 18
# Procedure: as §1, §2
# [3] = biological target: T3, Hybrid LAMP1 / glycan-deleted LAMP1 transmembrane proteins; conditions: pXL6014 LAMP1_mseq3_ΔGYQTI; Table 18
# Procedure: as §1, §2
# [4] = biological target: T4, Hybrid LAMP1 / glycan-deleted LAMP1 transmembrane proteins; conditions: pXL6013 LAMP1_mseq2_ΔGYQTI; Table 18
# Procedure: as §1, §2
# [5] = biological target: T5, Hybrid LAMP1 / glycan-deleted LAMP1 transmembrane proteins; conditions: pXL6041 mLAMP1_hseq6-11_ΔGYQTI
# Procedure: as §1, §2
Binding call ([1]; Table 17 Experiment no1),Mean fluorescence ([1]; Table 17 Experiment no1),Binding call [2],Mean fluorescence [2],Binding call [3],Mean fluorescence [3],Binding call [4],Mean fluorescence [4],Binding call ([5]; Table 17 Experiment no1),Mean fluorescence ([5]; Table 17 Experiment no1),Binding call ([1]; Table 17 Experiment no2),Mean fluorescence ([1]; Table 17 Experiment no2),Binding call ([5]; Table 17 Experiment no2),Mean fluorescence ([5]; Table 17 Experiment no2),Molecule
No binding,25,Binding,629,Binding,694,Binding,694,No binding,28,–,–,–,–,"MAb2: murine monoclonal anti-LAMP1 antibody, VH SEQ ID NO: 8, VL SEQ ID NO: 12 (antibody, V domains shown, antibod fragment; antibody fragment) VH: QVQLQQSAAELARPGASVKMSCKASGYTFTSYTMHWVKQRPGQGLEWIGYFNPSSGYPEYNQKFKDKTTLTADKSSNTAFIQLNSLTSEDSAVYYCSRGYYYGSRGYALDFWGQGASVTVSS VL: NIVLTQSPVSLAVSLGQRATISCRASESVDINGNTFMHWYQQKPGQSPKLVIYAASNIESGVPARFSGSGSSTDFTFTIDPVEADDVATYYCQQNIEDPWTFGGGTKVEIK"
No binding,7,Binding,846,Binding,888,Binding,990,Binding,680,No binding,3,binding,211,"MAb1: murine monoclonal anti-LAMP1 antibody, VH SEQ ID NO: 1, VL SEQ ID NO: 5 (antibody, V domains shown, Antibody Fragment; antibody fragment) VH: QVQLQQSGAELVKPGASVKMSCKASGYIFTNYNIHWVKKSPGQGLEWIGAIYPGNGDAPYSQKFKDKATLTADKSSSTTYMQLSRLTSEDSAVYYCVRANWDVAFAYWGQGTLVSVSA VL: DIQMTQSPPSLSASLGGKVTITCKASQDIDRYMAWYQDKPGKGPRLLIHDTSTLQPGIPSRFSGSGSGRDYSFSISNLEPEDIATYYCLQYDNLWTFGGGTKLEIK"
